# Experimental data published in the DeepSol protein solubility set.
# Experiment: soluble on expression in E. coli; label from the status in PepcDB or PDB records
row,Sequence,soluble on expression in E. coli
1,GPGSMHPGLPRAFPDTEWQTVADIFRRRAPVSFLAPNSSASATADPAAAAEAWVQQEIGYYEANYTTVEDLNVCVTTFNVGCKKPVLPLTSLACLTSGGGGADGAPVRPTDLIVVGLQEVDMSATALFKQETEASAPWVAGLNAAIGASRCSSTAASSSSGAGASPYYAFPPKQLVGLLLCVFIRRPLLSAVSESSTATVATGALGSMGNKGAVGFHLVLHRTSICIITAHLAAGQSNVSKRNEDINTILKSMDFNAARRAEMQISASASMPMDESVFLELHPRDHDIIIVAGDLNYRLRLPYETAVHLANAGQFSELLQYDELATEMKSPHTPWLNFINFTPTHMPTYRFDIGTDAYDTSEKRRVPSYTDRICMWSRRKSMESRVRLDRLSALMEVRSSDHKPVQALARIPISVEVPAQKAQVISSLREKVAAVGLAQASSAKISLSTSKVNFQAQSFHHCGAQETVTVQNSGDCVAVVRVVRQREGDYSEGTWLRATPLELAILPGESQDVVIETAIDPRCMTWLAAWSPYQGRGRVSLTSVLLFCCRNGPVQAVECQCLLSPSVFGNGLDSIALLQDKPCVEAYAQKADFEEVVRQVRPHVPKELWYLAHVIAQHPREGGLFTRSTDKDVCCRIMELLDTKNAPLPAGTDVHCAAECLLAFLKNLLEPVVPYAQYTTALAAGRAKGKAPLQFLRQLPTMHANVWIYVMSLLNYLLRPVHSCDNELDANFLAHIFSAVLIVRPTNAQGAIPARLQQGGGVDQQVRQQLQQESDDALALVAYFLSTPPSMLAGVE,not soluble
2,GPGSMSSSPNPMGAGTASATPKSTGGPEASPGSVRRSTLYAVLNVSHTATLEEITAAYRKLALVYHPDRPNGLQWKFQEIQRAYEVLSQKDARAKYDILLRGKLAVKNFKRPPPLESVLQPVYALLADGAFYEFEAASSKLKCSFHYGDGIQFNGDCGSFIGLAGDGFIYWTISGRGFASRLCKAGSTFALSSVRVMYRSNMGLAKMPLKRSSLHSSHTCRPAGSSGDKRAVRGSTGDAGCSERAKSTTGARAAKMSEADRIKKALLNKERSRNLKRRMETLKEEEIEARNSLQQDLWGQFSSLHTTAEVAFRCTLQGVAVPVEMALWMGYKSPEEVMLRSSGACSSLFIAEQVSLQTSSLWVDPLQSDYFNDDEMLREGCDGNKEDRKHCTSNGRDVTARHKPDSADSSPCSSQSSPASDGAPDGDACRGRSATASGTHSPILHRLNNGATAVTGASDGAEVAKKE,not soluble
3,MIRINNIILDIDEDLENLKNKAAKKLKVSKESFESFKILRESIDARKKDVIKFNYSVEVKCKNESKIISKIHGKDAILEKNKEEERFQFGNEKLKHRPIVIGTGPCGMFAALTLAENGYAPLVIERGENVEKRTETVDNFWKTGVLNTESNVQFGEGGAGTFSDGKLTTRIKDPRCTYVLEEFIKSGAPEEIGYVGKPHIGTDILKKVVKNIRERIISLGGEVKFNSKLEDIIIKNDSIEAVVVNGAEIPCECLVLAIGHSSRDTYEMLHKKGIFMDPKPFAIGVRIEHPQDFINESQYGKYKNHPRLKAADYKLTHTTKDKRGVYSFCMCPGGEVVASSSEDERLVCNGMSYYKRDLENANAALVVTVNSEDFKASKELYNKDISDNSPLIGMEFQRYYEHLAYLAGGGNYNAPIQLVGDFMKDTVSSKLGSVKPSYTPGYKFASLSECLPPYVIAALKEGLVNFDKKITGYMLSDAVMTGIETRTSAPLKITRNESLESISLKGLYPSGEGAGFAGGIISAAVDGVKSAESIMRKYKILEHHHHHH,not soluble
4,MGSDKIHHHHHHMNKANTVDTSTEAVERVAKEISGLASREAVSMIQGWEDAFELYLKAADQLSALAAERDTLANQVEDCARECAKLAEEIQRLQAQLAETRASLYALEKGVWRDGYPDKISGSEWFIALLEDNRRVVLRSLPEEHSYDYTTADDTYLAAWKIKRWMQFPDANFIAPDTIVHTTVERIEQIKEEARNAALEEAAEVVARIKKPTIPPMFMGQTRAEAYDMGQHNACESKAELIRTLKSEPAPHPDCPECSGSGMRDSGGVQPWGDHIDAPCDCENAPAPRQSVQKAADNLAKGLRSAGYFIPSSIIFDVMVQKKSAS,not soluble
5,DDIDYANAEYYLGNTYDLVILDTVDNFQPINIGRLVDLARGGGLIIIYTNNLIKDKTFRTSIMRNGLILDEYEKRFKRKLYEHEGIFIIDVNEYIPKPFSGNTM,not soluble
6,MTVTNMTEWFAKGVEALHHDHVYLARACFEQAVTEQRSPLSSSYLALCQAKTRGTFSDAIASAREAVAADPANPALYHNLGCIYLLAGKRTEAIETFRQGLEHHHHHH,not soluble
7,MSLKIKVGLIGFGRMGRFYLKEMQKSGRWDVAYICDINPDCRELAKQLSPESKILENEQEMFDDESVQVVGLFALADSRLDRIEKAIKYGKHIISEKPVSDTIDKEWKVVDITEKASCFSTVNLYLRNAWYHQTIKQFIDQGEIGELAILRICHMTPGLAPGEGHEYEGPAFHDCGMHYVDIARWYAGCEYKTWHAQGVNMWSYKDPWWVQCHGTFQNGVVFDITQGFVYGQLSKDQTHNSYVDIIGTKGIARMTHDFKTAVVDLRGVTQTHHIEKPFGGKNIDVLCDLFADSIETGIRNPQLPLIRDSAIASEYAWTFLHDAYTHDLPAIGEGHHHHHH,soluble
8,AWPEGQALGPGMPLPEPSEQEGESVKAGQEPSPKPGTDVIPAAPRKPREFSKLVLLTASDQDEDGVGSKPQEVHCVLSLEMAGPATLASTLQILPVEEQGGVVQPALEMPEQKCSKLDAAPQSLEFLRTPFGGRLLVLESFLYKQEKAVGDKVYWKCRQHAELGCRGRAITRGLRATVMRGHCHAPDEQGLEARRQREKLPSLALPEGLGEPQGPEGPGGRVEEPLEGVGPWQCPEEPEPTPGLVLSKPALEEEEAPRALSLLSLPPKKRSILGLGQARPLEFLRTCYGGSFLVHESFLYKREKAVGDKVYWTCRDHALHGCRSRAITQGQRVTVMRGHCHQPDMEGLEARRQQEKAVETLQAGQDGPGSQVDTLLRGVDSLLYRRGPGPLTLTRPRPRKRAKVEDQELPTQPEAPDEHQDMDADPGGPEFLKTPLGGSFLVYESFLYRREKAAGEKVYWTCRDQARMGCRSRAITQGRRVTVMRGHCHPPDLGGLEALRQREKRPNTAQRGSPGGPEFLKTPLGGSFLVYESFLYRREKAAGEKVYWTCRDQARMGCRSRAITQGRRVMVMRRHCHPPDLGGLEALRQREHFPNLAQWDSPDPLRPLEFLRTSLGGRFLVHESFLYRKEKAAGEKVYWMCRDQARLGCRSRAITQGHRIMVMRSHCHQPDLAGLEALRQRERLPTTAQQEDPEKIQVQLCFKTCSPESQQIYGDIKDVRLDGESQ,soluble
9,VGDLYYHVGVNATFIKNELTEVNGSRDEWQGFNPHAKGTITYAKTGHSIGYFNLIKTDGVFQSQQEIDAYVDKNGNKIQPNAQPGDLRFVDYNGDGKIDNNDRQDVGSAFPKVNLGVSLGAEWKGLDLNMFFDGNFGNKIYNAQYYSTVYNESTGNQYAERMNSWTENNHSDIPRCLFGTSDPNGTNWGYTDRWLENGSFLRLKTLELGYTLPKVWVSKAGLQNVRVYTAMENLFTITDYKGYTPDLGMVDADGAGTSGGSGVMTRGCDDGRYPMARTITFGLQVNF,not soluble
10,MGSDKIHHHHHHMIYCDHCVMPNTRPGINFTKDKEGKNICSACINHKNKENIDYKARFKELEVLCDKYRRMNGKFEYDCAIAVSGGKDSHFQVHIMKEKLGMNPILFSVEDNFTMTEAGKKNLKNLSETFGCHIISLKPDIKTQKKVMLKTFEKYGKPTWFIDRLIYSYPFAMALKFNTPLLVYGENVSYEYGGSDTEETPSAKEIFLNGVASDLNINEFIDDEIKEENLQLFFNPNKDKLDKLNPIYLSYFVKWNSYSNYIFAKSRGFTDLEGEWDRTMCAENFDQVDSIGYILHAWMKYPKFGHACASDYAARFVRYGLLSRKEAIELVQKRDHKLDNKCVEDFCNFIGISKTTFWKIVEKHYNMDLFYKNDFGEFKLKNKLQ,not soluble
11,MGSDKIHHHHHHMLPLEGLTVIAVEQAVAAPYCSSRLADAGAHVIKIERPEGDFARGYDAAAKGQSSYFVWLNRGKESAVVDLATKEGRAELEKLIASADVLLQNLKPGSMDKLGFARERLRKDYPKLIICTISGYGDEGPYAHRKAYDLLIQAESGLASITGGPESASRVGMSIVDVATGATAHAAILEALIGRGRTGQGADIRISMFDVMADWLTVPLLNAEAGNPPKRLGLAHPSIAPYGVFTSKDGKDILISIQSEREWKKLCSDVLRQPDLPNDPRLCNGVERVKNRAYTDKIVADIFGSLTRDDLLEHLAAADIAFAEVNAMEDLSHHPHLRRIEVDTPNGKVSYPAPAAIFVGDERRYGAVPGIGDKRK,not soluble
